Here are results for 28 molecules from patent US9266930.

Read-outs that look alike come from different tables or passages of the source.

Test [1] addresses HLA-A*0201 (human).
The target in test [2] is HLA-A*1101 (purified HLA class I molecule) (human).
For test [3], the target named is HLA-DR5w11 (DRB1*1101) (human).
The target in test [4] is HLA-DR4w4 (DRB1*0401) (human).
The target of test [5] is HLA-DR3 (DRB1*0301) (human).
For test [6], the target named is HLA-DR2w2β1 (DRB1*1501) (human).
In test [7] the target is HLA-DR1 (DRB1*0101) (human).
The target in test [8] is HLA-DR4w15 (DRB1*0405) (human).
Test [9] addresses HLA-A*1101 (human).
For test [10], the target named is HLA-DR2w2β2 (DRB5*0101) (human).
For test [11], the target named is T1, HLA-DR5w12 (DRB1*1201) (human).
T1 chain 1: not shown
T1 chain 2: not shown

Test [12] addresses T2, HLA-DR6w19 (DRB1*1302) (human).
T2 chain 1: not shown
T2 chain 2: not shown

Test [13] has as its target T3, HLA-DR8w2 (DRB1*0802) (human).
T3 chain 1: not shown
T3 chain 2: not shown

Test [14] deals with T1, HLA-DR5w12 (DRB1*1201) (human).
For test [15], the target named is T4, HLA-DR9 (DRB1*0901) (human).
T4 chain 1: not shown
T4 chain 2: not shown

Test [16] has as its target T5, HLA-DR7 (DRB1*0701) (human).
T5 chain 1: not shown
T5 chain 2: not shown

Test [17] concerns the target HLA-A*1101 (human). The test can be described thus: competition with 125I-labelled standard peptide for purified HLA, gel filtration. For orientation: Size exclusion chromatography separates by hydrodynamic size, large species first.
The next test concerns the target HLA-A*6801 (human). The description is as above.
Test [18] addresses HLA-A*0301 (human). The description is as above.
Another test has as its target HLA-A*0206 (human). The test can be described thus: competition with 125I probe peptide for purified HLA, gel filtration.
In test [19] the target is T6, HLA-DR5w11 (DRB1*1101) (human).
T6 chain 1: not shown
T6 chain 2: not shown
The test can be described thus: inhibition of 125I-probe peptide binding to purified HLA-DR, gel filtration.

Test [20] addresses T7, HLA-DR1 (DRB1*0101) (human).
T7 chain 1: not shown
T7 chain 2: not shown
The test is described as above.

Test [21] concerns the target T8, HLA-DR4w4 (DRB1*0401) (human).
T8 chain 1: not shown
T8 chain 2: not shown
The description is as above.

In test [22] the target is T9, HLA-DR2w2β2 (DRB5*0101) (human).
T9 chain 1: not shown
T9 chain 2: not shown
The test is described as above.

The target of test [23] is T10, HLA-DR4w15 (DRB1*0405) (human).
T10 chain 1: not shown
T10 chain 2: not shown
Described as above.

Test [24] addresses HLA-A*1101 (human). The test can be described thus: competition with 125I-labeled probe peptide for purified HLA, gel filtration. Conditions: scale: ratio.
Test [25] deals with HLA-A*0301 (human). The test is described as above. The conditions noted are these: scale: ratio.
In another test the target is HLA-A*3301 (human). The test can be described thus: competition with 125I-labelled standard peptide for purified HLA, gel filtration.
A further test has as its target HLA-A*0203 (human). The test can be described thus: competition with 125I probe peptide for purified HLA, gel filtration.
For test [26], the target named is HLA-A*0201 (human). The description is as above.
Test [27] has as its target T6, HLA-DR5w11 (DRB1*1101) (human).
The target in test [28] is T7, HLA-DR1 (DRB1*0101) (human).
Test [29] deals with T9, HLA-DR2w2β2 (DRB5*0101) (human).
Test [30] concerns the target T11, HLA-DR2w2β1 (DRB1*1501) (human).
T11 chain 1: not shown
T11 chain 2: not shown

The target in test [31] is T10, HLA-DR4w15 (DRB1*0405) (human).
Test [32] addresses HLA-DR3 (DRB1*0301) (human). The test can be described thus: competition with 125I-labeled probe peptide on purified HLA-DR, gel filtration.

With SVFNVVNSSI (modifications not checked) [… (P. falciparum CSP, position 415, 10 amino acids)], the binding affinity ratio (IC50 of standard peptide / IC50 of test peptide) in the test with HLA-A*0201 (human) [1] came out at 0.0005.
As for TCGKGTRSRK (modifications not checked) [… (Pf SSP2 256, 10-mer)], the binding affinity ratio (IC50 of standard peptide / IC50 of test peptide) in [2] was 0.0002.
With IGPFMKAVCVEVEKT (modifications not checked), the binding affinity ratio (IC50 of standard peptide / IC50 of test peptide) is -0.0004 in [3]; -0.0006 in [4]; -0.0008 in test [5]; 0.0003 in test [6]; 0.0072 in [7]; 0.0086 in test [8].
As for NLPNDKSDR (modifications not checked) [… (Pf SSP2 406)], the binding affinity ratio (IC50 of standard peptide / IC50 of test peptide) with HLA-A*1101 (human) [9] is 0.0002.
ANQLVVILTDGIPDS (modifications not checked): the values for the binding affinity ratio (IC50 of standard peptide / IC50 of test peptide) in test [3], in [6] and in test [10] were -0.0002, 0.0008 and -0.0005, respectively.
Regarding EALFQEYQCYGSSSN (modifications not checked) [… (Pf CSP DR-supermotif 15-mer, core …)], the binding affinity ratio (relative to standard peptide) in test [11] is 0.0001.
On to LALFFIIFNK (modifications not checked) [Pf EXP peptide … (position 9)], for which the binding affinity ratio (relative to standard peptide) with HLA-A*1101 (human) [9] was found to be 0.053.
Take VFFLALFFIIFNKES (modifications not checked) [… (Pf EXP 6)]: the binding affinity ratio (IC50 of standard peptide / IC50 of test peptide) in test [12] is -0.0002; in test [13], -0.0007; in test [14], 0.0002; in test [15] it was -0.0018; in test [16], 0.0056.
Turning to QVRKHLNDR (modifications not checked), the binding affinity ratio (IC50 of standard peptide / IC50 of test peptide) in the test with HLA-A*1101 (human) [17] is 0.0002; in the test with HLA-A*6801 (human), 0.0002; with HLA-A*0301 (human) [18] it was 0.0005.
Regarding VTCGNGIQV (modifications not checked) [… (P. falciparum CSP, position 375, 9 amino acids)], the binding affinity ratio (IC50 of standard peptide / IC50 of test peptide) with HLA-A*0201 (human) [1] came out at 0.0011.
Broadly, the IC50 is the concentration needed to halve the response being measured. Turning to KILSVFFLA (modifications not checked) [1167.13], the IC50 in the test with HLA-A*0206 (human) is 8 nM.
As for VSTVLLGGVGLVLYN (modifications not checked) [… (Pf EXP 88)], the binding affinity ratio (IC50 of standard peptide / IC50 of test peptide) was 0.0002 in test [12]; -0.0002 in test [13]; 0.0011 in [14]; 0.012 in test [15]; 0.002 in [16].
On to NMPNDPNRNV (modifications not checked) [… (P. falciparum CSP, position 323, 10 amino acids)], for which the binding affinity ratio (IC50 of standard peptide / IC50 of test peptide) with HLA-A*0201 (human) [1] was determined as 0.0007.
For EALFQEYQCYGSSSN (modifications not checked), the binding affinity ratio (relative binding) (ratio to standard peptide) in test [19] is -0.0002; in test [20], 0.0001; in test [21], 0.0053; in test [22], -0.0005; in [23], -0.0009.
TVLLGGVGLVLYNTE (modifications not checked) [… (Pf EXP 90)]: the binding affinity ratio (IC50 of standard peptide / IC50 of test peptide) in [13] was -0.0002; in test [14], 0.0004; in test [16], 0.0007.
ILSVFFLALFFIIFN (modifications not checked) [… (Pf EXP 3)]: the binding affinity ratio (IC50 of standard peptide / IC50 of test peptide) was 0.0005 in [12]; 0.0031 in test [13]; 0.0008 in [14]; -0.0003 in test [15]; 0.011 in [16].
On to ADSAWENVK (modifications not checked) [… (Pf SSP2 position 216)], for which, in the test with HLA-A*1101 (human) [9], the binding affinity ratio (IC50 of standard peptide / IC50 of test peptide) is 0.0009.
Consider GVSSKKKNK (modifications not checked) [… (P. falciparum EXP, position 32, 9 amino acids)], for which the binding affinity ratio (relative to standard peptide) with HLA-A*1101 (human) [24] worked out at 0.0002; with HLA-A*0301 (human) [25] it was 0.0001.
Consider PSPNPEEGK (modifications not checked), for which the binding affinity ratio (IC50 of standard peptide / IC50 of test peptide) came out at 0.001 in the test with HLA-A*3301 (human), 0.0002 in the test with HLA-A*1101 (human) [17], 0.0002 in the test with HLA-A*6801 (human) and 0.0005 with HLA-A*0301 (human) [18].
Consider GVSSKKKNKK (modifications not checked) [… (P. falciparum EXP, position 32, 10 amino acids)], for which the binding affinity ratio (relative to standard peptide) with HLA-A*1101 (human) [24] was 0.0002; with HLA-A*0301 (human) [25], 0.0011.
In the case of FMKAVCVEV (modifications not checked) [1167.16], the IC50 with HLA-A*0206 (human) was determined as 389 nM; in the test with HLA-A*0203 (human), 2.9 nM; in the test with HLA-A*0201 (human) [26], 63 nM.
As to NSSIGLIMVLSFLFL (modifications not checked), the binding affinity ratio (relative binding) (ratio to standard peptide) is -0.0005 in test [27]; 0.004 in test [28]; 0.0024 in [29]; 0.025 in [30]; 0.0035 in test [31].
With SVTCGKGTR (modifications not checked) [… (Pf SSP2 254, 9-mer)], the binding affinity ratio (IC50 of standard peptide / IC50 of test peptide) in [2] was determined as 0.0009.
For the molecule GLIMVLSFL (modifications not checked) [1167.08], the IC50 with HLA-A*0201 (human) [26] amounted to 22 nM.
For SDASKNKEK (modifications not checked) [… (Pf SSP2 105, 9-mer)], the binding affinity ratio (IC50 of standard peptide / IC50 of test peptide) in test [2] turned out to be 0.0002.
Regarding FIIFNKESLAEKTNK (modifications not checked), in [32], the binding affinity ratio (IC50 standard peptide / IC50 test peptide) came to 0.004.
Still for that read-out and setting: then VEALFQEYQCYGSSS (modifications not checked), with 0.0082.
In the case of VSTVLLGGVGLVLYN (modifications not checked), the binding affinity ratio (IC50 of standard peptide / IC50 of test peptide) in test [3] is 0.0003; in test [5] it was -0.0008; in [6], 0.008; in test [8], -0.0009; in [10], 0.0005.
